{"source": "patent US20150139990A1", "about": "(DAINIPPON SUMITOMO PHARMA, published 2015)", "binders": {"B1": {"name": "002-A07 IgG4 antibody (antibody)", "heavy": "not shown", "light": "QSVLTQPPSASGTPGQRVTISCTGSTSNIGAGYDTHWYQQLPGTAPKLLIYGNSNRPSGVPDRFSGSKSGTSASLAISGLRSEDEADYYCQSYDTNLSVWVFGGGTKLTVLGQPKAAPSVTLFPPSSEELQANKATLVCLISDFYPGAVTVAWKADSSPVKAGVETTTPSKQSNNKYAASSYLSLTPEQWKSHRSYSCQVTHEGSTVEKTVAPTECS", "notes": "human IgG4 S228P, lambda light chain"}}, "experiment_in_all_cases": "ELISA", "key": {"[1]": {"target": "T1, h175c human-chicken CD81 chimera (human; chicken, UniProt P60033 1-236)", "T1 construct": "as m30; not shown: C-terminal V5 and 6xHis tags", "T1 chain": "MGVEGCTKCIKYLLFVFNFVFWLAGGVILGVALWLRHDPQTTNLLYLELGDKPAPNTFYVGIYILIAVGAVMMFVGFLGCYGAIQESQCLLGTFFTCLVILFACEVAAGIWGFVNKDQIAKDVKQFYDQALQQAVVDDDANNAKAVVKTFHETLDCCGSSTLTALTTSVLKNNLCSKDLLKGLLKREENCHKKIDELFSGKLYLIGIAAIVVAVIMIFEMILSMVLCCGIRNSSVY", "protocol": "(§1) To identify the epitopes to which each of the anti-human CD81 antibodies (002-A07 and 005-001) bind, ELISA assays were performed using human-chicken CD81 chimera constructs listed in Table 6. Each construct was transiently expressed in CHO cells and its cell membrane fraction was solubilized with detergents and immobilized onto a plate.\n(§2) As control antibodies, human IgG4 antibody (Acris Antibodies GmbH) and mouse IgG antibody were used. Human-chicken chimera protein was captured via His tag introduced into the C-terminal by adding the membrane fraction (5 μg/100 μL/well) prepared (1) above to Ni NTA His Sorb plate (QIAGEN) in the presence of 1% (w/v) n-Octylglucoside and incubating for 3 hours at 4° C. After washing with TBST (TBS, 0.05% (v/v) Tween 20) three times, an anti-human CD81 antibody or a control antibody (50 μL/well) was added and incubated for 1 hour at room temperature (RT). After washing, 2000 fold-diluted HRP-labeled anti-human IgG4 antibody (Mouse anti-human IgG₄ HRP clone:HP6023 Beckman Coulter) or 1000 fold-diluted HRP-labeled anti-mouse IgG antibody (Invitrogen) (50 μL/well) were added. The plate was incubated for 1 hour at RT and washed with TBST three times. And then, peroxidase activity was determined by TMB One solution (Promega; Code 53025). The reaction was stopped with 2 M H₂SO₄ (50 μL) and absorbance at 450 nm was measured."}, "[2]": {"target": "T2, cCD81 (chicken CD81 construct with C-terminal V5 and 6xHis tags) (chicken)", "T2 construct": "as m30; not shown: C-terminal V5 and 6xHis tags", "T2 chain": "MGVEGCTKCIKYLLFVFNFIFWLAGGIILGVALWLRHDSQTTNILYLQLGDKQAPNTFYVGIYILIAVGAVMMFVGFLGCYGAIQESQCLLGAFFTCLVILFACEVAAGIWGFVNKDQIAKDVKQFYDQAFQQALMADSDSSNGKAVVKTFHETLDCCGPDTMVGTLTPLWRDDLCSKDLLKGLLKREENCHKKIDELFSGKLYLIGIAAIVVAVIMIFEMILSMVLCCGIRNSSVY", "protocol": "as §1, §2"}, "[3]": {"target": "T3, c156h human-chicken CD81 chimera (chicken; human, UniProt P60033 1-236)", "T3 construct": "as m30; not shown: C-terminal V5 and 6xHis tags", "T3 chain": "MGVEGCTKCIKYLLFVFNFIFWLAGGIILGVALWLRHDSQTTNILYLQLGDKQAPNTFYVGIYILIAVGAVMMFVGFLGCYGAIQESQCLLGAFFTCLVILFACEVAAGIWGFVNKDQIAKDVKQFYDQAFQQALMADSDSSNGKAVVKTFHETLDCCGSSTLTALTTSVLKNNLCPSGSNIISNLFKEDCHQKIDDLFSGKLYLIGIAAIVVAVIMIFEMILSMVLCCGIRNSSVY", "protocol": "as §1, §2"}, "[4]": {"target": "T4, h156c human-chicken CD81 chimera (human; chicken)", "T4 construct": "as m30; not shown: C-terminal V5 and 6xHis tags", "T4 chain": "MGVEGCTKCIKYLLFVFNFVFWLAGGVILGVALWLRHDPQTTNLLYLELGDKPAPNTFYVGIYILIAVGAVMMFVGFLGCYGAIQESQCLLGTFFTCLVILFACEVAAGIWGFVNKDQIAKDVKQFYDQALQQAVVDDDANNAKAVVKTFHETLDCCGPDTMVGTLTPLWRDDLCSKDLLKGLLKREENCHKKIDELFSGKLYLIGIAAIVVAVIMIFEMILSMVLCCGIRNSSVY", "protocol": "as §1, §2"}, "[5]": {"target": "T5, c80h human-chicken CD81 chimera (chicken; human, UniProt P60033 1-236)", "T5 construct": "as m30; not shown: C-terminal V5 and 6xHis tags", "T5 chain": "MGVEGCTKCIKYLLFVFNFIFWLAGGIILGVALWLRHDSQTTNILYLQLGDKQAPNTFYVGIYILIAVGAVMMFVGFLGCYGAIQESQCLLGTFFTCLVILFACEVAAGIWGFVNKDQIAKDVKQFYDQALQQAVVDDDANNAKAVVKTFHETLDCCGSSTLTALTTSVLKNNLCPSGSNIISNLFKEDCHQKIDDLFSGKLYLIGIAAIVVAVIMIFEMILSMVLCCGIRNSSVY", "protocol": "as §1, §2"}, "[6]": {"target": "T6, h80c human-chicken CD81 chimera (human; chicken)", "T6 construct": "as m30; not shown: C-terminal V5 and 6xHis tags", "T6 chain": "T2 chain with I20V, I27V, S39P, I44L, Q48E, Q53P", "protocol": "as §1, §2"}, "[7]": {"target": "T7, c175h human-chicken CD81 chimera (chicken; human)", "T7 construct": "as m30; not shown: C-terminal V5 and 6xHis tags", "T7 chain": "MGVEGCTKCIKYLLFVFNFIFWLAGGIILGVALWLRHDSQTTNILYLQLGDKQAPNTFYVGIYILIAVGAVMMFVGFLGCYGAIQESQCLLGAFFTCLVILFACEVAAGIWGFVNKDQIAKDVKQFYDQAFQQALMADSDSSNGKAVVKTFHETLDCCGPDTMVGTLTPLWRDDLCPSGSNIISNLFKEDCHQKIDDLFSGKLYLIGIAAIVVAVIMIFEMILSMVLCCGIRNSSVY", "protocol": "as §1, §2"}, "[8]": {"target": "T8, h138c human-chicken CD81 chimera (human; chicken)", "T8 construct": "as m30; not shown: C-terminal V5 and 6xHis tags", "T8 chain": "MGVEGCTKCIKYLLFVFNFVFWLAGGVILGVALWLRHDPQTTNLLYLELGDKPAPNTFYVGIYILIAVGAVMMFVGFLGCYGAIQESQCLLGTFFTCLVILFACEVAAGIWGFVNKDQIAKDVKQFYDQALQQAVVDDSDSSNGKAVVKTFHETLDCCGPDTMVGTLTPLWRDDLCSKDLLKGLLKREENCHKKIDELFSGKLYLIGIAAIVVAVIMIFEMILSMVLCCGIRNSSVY", "protocol": "as §1, §2"}}, "note": "Residue numbers refer to the chain shown, from its start. In names and notes the source's numbering stands.", "data": [{"binder": "B1", "values": [{"measurement": "binding result", "setting": "[1]", "value": "binds"}, {"measurement": "absorbance at 450 nm relative to hCD81", "setting": "[2]", "value": "< 10", "unit": "%"}, {"measurement": "absorbance at 450 nm relative to hCD81", "setting": "[3]", "value": "< 10", "unit": "%"}, {"measurement": "absorbance at 450 nm relative to hCD81", "setting": "[4]", "value": "< 10", "unit": "%"}, {"measurement": "binding result", "setting": "[5]", "value": "binds"}, {"measurement": "absorbance at 450 nm relative to hCD81", "setting": "[6]", "value": "< 10", "unit": "%"}, {"measurement": "absorbance at 450 nm relative to hCD81", "setting": "[7]", "value": "< 10", "unit": "%"}, {"measurement": "absorbance at 450 nm relative to hCD81", "setting": "[8]", "value": "< 10", "unit": "%"}]}]}
